From patent US20230025280A1, “PH RESPONSIVE COMPOSITIONS, FORMULATIONS, AND METHODS OF IMAGING A TUMOR” (ONCONANO MEDICINE, INC, priority 2019, published 2023)
“And” between values parts separate entries of the source, which are not always exact repeats. Equal values may be shown once.

Experiment: Phase 1 (1a/1b) pharmacokinetics: plasma concentrations after single IV dose (validated direct fluorescence reader assay), noncompartmental analysis
Type: in vivo, human
Settings: 1.2 mg/kg
Source text: Phase 1 is a single-Principal Investigator, non-randomized, open-label, single-arm, cross-sectional study to evaluate the safety, PK profile, and imaging feasibility of Compound 1 in patients with solid cancers who require surgical excision. The main purpose of this study was to investigate the safety, PK, and feasibility of Compound 1 as an intra-operative optical imaging agent to detect tumors and metastatic lymph nodes in solid cancers. The study was intended to investigate the optimal dose range of Compound 1 for an adequate TBR and CNR of fluorescence obtained intraoperatively at 24 (±8) hours post dosing and with ex vivo specimens using ICG compatible cameras and imaging devices.
Phase 1 enrolled 30 patients with solid cancers (HNSCC, breast cancer, esophageal cancer, or colorectal cancer) who have a biopsy-confirmed diagnosis of respective tumor types and are scheduled to undergo surgical resection of the tumor. The study design included a standard 3+3 design for the dose-escalation portion (Phase 1a; N=18 maximum) followed by a dose-expansion portion (Phase 1b; N=15). All patients received a single I.V. dose of Compound 1, followed by routine surgery approximately 24 hours after infusion of Compound 1.
Phase 1a was a dose-finding study performed in 5 cohorts of 3 patients each. The dose levels evaluated were […], and 1.2 mg/kg, in this sequence. Inter-cohort dose escalation took place after the last patient in the previous cohort completed the Day 10 safety assessment. Safety, PK, and imaging feasibility were evaluated in both the Phase 1a and 1b portions of the study. Patient safety is assessed during the study and for up to 10 days post-dose.
Study design: Single Compound 1 IV dose was administered as a 1-5 minute IV infusion to patients in five cohorts (0.1, 0.3, 0.5, 0.8, and 1.2 mg/kg) with three patients per cohort in Phase 1a and 15 patients at a dose of 1.2 mg/kg in Phase 1b. Patient demographic information including tumor types is presented in Table 4 and 5 for Phase 1a and Table 5 for Phase 1b. Intertek Pharmaceutical Services (San Diego, Calif.) determined Compound 1 plasma concentrations using a validated direct fluorescence reader assay. Pacific BioDevelopment (Davis, Calif.) performed the PK analysis.
Sample collection: Blood samples were collected prior to infusion and at 10 minutes and 0.5, 1, 3, 8, 24, 48, 72, and 240 hours after infusion.
Analysis: Plasma concentration versus time profiles were generated for each patient. Pharmacokinetic parameters were estimated using Phoenix WinNonlin (version 8.0). According to SOP, concentrations reported as BQL were set to 0 except for the 0.5 h sample for subject #ON1102, which was set to LLOQ/2 ([…] value used in parameter calculations) and the 24 and 48 h samples.
If the coefficient of determination for the terminal slope estimation was less than 0.8, T1/2 was not reported (NR). AUC extrapolated to infinity is not reported for any data set because in all cases the % extrapolated AUC was greater than 20% and thus the AUCinf estimate would not be reliable. The concentration at 10 minutes, the first time point measured (C10m), was also reported for each patient.
The area under the plasma concentration versus time curves from dosing to the last time point with a measurable concentration (AUClast) was estimated by the linear trapezoid method. The last three or more time points were used to estimate the elimination rate constant (λz) which was used to estimate the terminal-phase half-life (T1/2) and AUC from zero to infinity (AUCINF) from the following equations: […]

For “PEO90-140-b-P(DBA60-150-r-ICG0-3-r-AMA0-3) [Compound 1]”, the “Differences in pharmacokinetic parameters based on tumor type” value (Phase 1a and Phase 1b) was “no apparent differences”, the T1/2 (ALL cancer types, Mean, N 16) was 44.5 h and the AUC0-24 hr (ALL cancer types, Mean, N 18) was 615 µg·h/mL. The AUCall (ALL cancer types, Mean, N 18) was 1670 µg·h/mL, the AUClast (ALL cancer types, Mean, N 18) was 1100 µg·h/mL and the C10 m (ALL cancer types, Mean, N 18) was 33.0 µg/mL. The Cmax (ALL cancer types, Mean, N 18) was 34.3 µg/mL, the Tmax (ALL cancer types, Mean, N 18) was 50 min and the T1/2 (ALL cancer types, Median, N 16) was 40.5 h. The AUC0-24 hr (ALL cancer types, Median, N 18) was 615 µg·h/mL, the AUCall (ALL cancer types, Median, N 18) was 1170 µg·h/mL and the AUClast (ALL cancer types, Median, N 18) was 997 µg·h/mL. For the same substance, the C10 m (ALL cancer types, Median, N 18) was 32.4 µg/mL, the Cmax (ALL cancer types, Median, N 18) was 33.6 µg/mL and the Tmax (ALL cancer types, Median, N 18) was 30 min. It also gave an AUC0-24 hr (BC, Mean, N 5) of 592 µg·h/mL, an AUCall (BC, Mean, N 5) of 1730 µg·h/mL and an AUClast (BC, Mean, N 5) of 1150 µg·h/mL. It also gave a C10 m (BC, Mean, N 5) of 31.2 µg/mL, a Cmax (BC, Mean, N 5) of 32.9 µg/mL and a T1/2 (BC, Mean, N 5) of 51.0 h. It also gave a Tmax (BC, Mean, N 5) of 38 min, an AUC0-24 hr (BC, Median, N 5) of 574 µg·h/mL and an AUCall (BC, Median, N 5) of 1170 µg·h/mL. The AUClast (BC, Median, N 5) was 1020 µg·h/mL, the C10 m (BC, Median, N 5) was 33.0 µg/mL and the Cmax (BC, Median, N 5) was 33.0 µg/mL. The T1/2 (BC, Median, N 5) was 45.5 h, the Tmax (BC, Median, N 5) was 30 min and the AUC0-24 hr (BC, individual subjects) was 630 µg·h/mL and 693 µg·h/mL and 574 µg·h/mL and 562 µg·h/mL and 502 µg·h/mL. For the same substance, the AUCall (BC, individual subjects) was 1170 µg·h/mL and 3190 µg·h/mL and 1020 µg·h/mL and 1120 µg·h/mL and 2120 µg·h/mL, the AUClast (BC, individual subjects) was 1020 µg·h/mL and 1740 µg·h/mL and 891 µg·h/mL and 968 µg·h/mL and 1110 µg·h/mL and the C10 m (BC, individual subjects) was 36.5 μg/mL and 33.0 μg/mL (2×) and 28.0 μg/mL and 25.5 μg/mL. The Cmax (BC, individual subjects) was 37.7 µg/mL and 34.3 µg/mL and 33.0 µg/mL and 32.0 µg/mL and 27.6 µg/mL, the T1/2 (BC, individual subjects) was 34.5 h and 83.0 h and 30.6 h and 45.5 h and 61.4 h and the Tmax (BC, individual subjects) was 60 min and 10.2 min and 30 min. For the same substance, the AUC0-24 hr (CRC, Mean, N 3) was 677 µg·h/mL, the AUCall (CRC, Mean, N 3) was 1790 µg·h/mL and the AUClast (CRC, Mean, N 3) was 1150 µg·h/mL. For the same substance, the C10 m (CRC, Mean, N 3) was 35.5 µg/mL, the Cmax (CRC, Mean, N 3) was 36.4 µg/mL and the T1/2 (CRC, Mean, N 3) was 46.3 h. The Tmax (CRC, Mean, N 3) was 33.4 min, the AUC0-24 hr (CRC, Median, N 3) was 684 µg·h/mL and the AUCall (CRC, Median, N 3) was 1090 µg·h/mL. For the same substance, the AUClast (CRC, Median, N 3) was 971 µg·h/mL, the C10 m (CRC, Median, N 3) was 35.8 µg/mL and the Cmax (CRC, Median, N 3) was 36.4 µg/mL. For the same substance, the T1/2 (CRC, Median, N 3) was 33.4 h, the Tmax (CRC, Median, N 3) was 30 min and the AUC0-24 hr (CRC, individual subjects) was 721 µg·h/mL and 684 µg·h/mL and 626 µg·h/mL. For the same substance, the AUCall (CRC, individual subjects) was 3350 µg·h/mL and 939 µg·h/mL and 1090 µg·h/mL, the AUClast (CRC, individual subjects) was 1780 µg·h/mL and 684 µg·h/mL and 971 µg·h/mL and the C10 m (CRC, individual subjects) was 38.6 µg/mL and 32.1 µg/mL and 35.8 µg/mL. The Cmax (CRC, individual subjects) was 38.6 µg/mL and 34.1 µg/mL and 36.4 µg/mL, the T1/2 (CRC, individual subjects) was 77.9 h and 33.4 h and 27.7 h and the Tmax (CRC, individual subjects) was 10.2 min and 60 min and 30 min. It also gave an AUC0-24 hr (EC, Mean, N 3) of 659 µg·h/mL, an AUCall (EC, Mean, N 3) of 1570 µg·h/mL and an AUClast (EC, Mean, N 3) of 1170 µg·h/mL. The C10 m (EC, Mean, N 3) was 34.7 µg/mL, the Cmax (EC, Mean, N 3) was 35.8 µg/mL and the T1/2 (EC, Mean, N 3) was 37.1 h. The Tmax (EC, Mean, N 3) was 43.4 min, the AUC0-24 hr (EC, Median, N 3) was 606 µg·h/mL and the AUCall (EC, Median, N 3) was 1460 µg·h/mL. For the same substance, the AUClast (EC, Median, N 3) was 1270 µg·h/mL, the C10 m (EC, Median, N 3) was 32.6 µg/mL and the Cmax (EC, Median, N 3) was 32.6 µg/mL. For the same substance, the T1/2 (EC, Median, N 3) was 34.4 h, the Tmax (EC, Median, N 3) was 60 min and the AUC0-24 hr (EC, individual subjects) was 606 µg·h/mL and 787 µg·h/mL and 585 µg·h/mL. The AUCall (EC, individual subjects) was 2150 µg·h/mL and 1460 µg·h/mL and 1100 µg·h/mL, the AUClast (EC, individual subjects) was 1280 µg·h/mL and 1270 µg·h/mL and 961 µg·h/mL and the C10 m (EC, individual subjects) was 31.4 µg/mL and 40.0 µg/mL and 32.6 µg/mL. For the same substance, the Cmax (EC, individual subjects) was 32.6 µg/mL and 42.2 µg/mL, the T1/2 (EC, individual subjects) was 43.3 h and 34.4 h and 33.6 h and the Tmax (EC, individual subjects) was 60 min and 10.2 min. The T1/2 (HNSCC, Mean, N 5) was 41.4 h, the AUC0-24 hr (HNSCC, Mean, N 7) was 585 µg·h/mL and the AUCall (HNSCC, Mean, N 7) was 1620 µg·h/mL. It also gave an AUClast (HNSCC, Mean, N 7) of 1020 µg·h/mL and a C10 m (HNSCC, Mean, N 7) of 32.5 µg/mL.
